Laboratory results as given in the Human Domainome abundance scans (Beltran et al. 2025).
± gives the uncertainty stated by the source.

B1: Protein piccolo, residues 1058 to 1114; numbered along this chain, Q9Y6V0 (parent)
chain: TCPLCKTELNIGSKDPPNFNTCTECKNQVCNLCGFNPTPHLTEIQEWLCLNCQTQRA

Variants of: B1
Test: abundance fitness (aPCA) (normalised: wild type 0, dead -1); higher = more abundant; growth selection in yeast, the domain comes from the species named
Conditions: Homo sapiens

Abundance fitness, by site and new letter:
F19: S -0.277 ± 0.12 | K -0.737 ± 0.42 | I 0.178 ± 0.22 | Y 0.032 ± 0.26 | T -0.044 ± 0.13 | C -0.347 ± 0.12 | V -0.211 ± 0.12 | L -0.151 ± 0.098 | E -0.153 ± 0.2 | W -0.083 ± 0.11 | M 0.181 ± 0.14 | N 0.04 ± 0.28 | P -0.385 ± 0.15 | H -0.022 ± 0.35 | R -0.263 ± 0.087 | A -0.114 ± 0.15
T7: W -0.797 ± 0.093 | Y -0.34 ± 0.1
C22: I -1.04 ± 0.2 | L -0.675 ± 0.11 | Y -0.899 ± 0.21 | T -0.736 ± 0.15 | W -1.03 ± 0.21 | K -0.818 ± 0.24 | A -0.647 ± 0.11 | S -0.611 ± 0.11 | M -0.74 ± 0.2 | D -0.817 ± 0.2 | Q -0.791 ± 0.17 | G -0.69 ± 0.11 | E -0.54 ± 0.16 | H -0.567 ± 0.15 | P -0.938 ± 0.17 | F -0.958 ± 0.18 | R -0.484 ± 0.11 | V -0.733 ± 0.099
E8: L -0.252 ± 0.071 | F -0.431 ± 0.097 | M -0.011 ± 0.088 | I -0.153 ± 0.11 | R -0.206 ± 0.071 | P -0.09 ± 0.093 | Y -0.679 ± 0.14 | W -0.517 ± 0.084 | C -0.56 ± 0.098 | Q -0.178 ± 0.099 | D -0.14 ± 0.12 | H -0.479 ± 0.14 | A -0.244 ± 0.077 | G -0.052 ± 0.071 | N -0.488 ± 0.15
I11: S -0.026 ± 0.092 | L -0.22 ± 0.088 | V -0.046 ± 0.098 | H 0.054 ± 0.14 | Y 0.086 ± 0.15 | Q 0.065 ± 0.12 | E 0.172 ± 0.14 | A -0.153 ± 0.1 | N 0.037 ± 0.18 | W -0.333 ± 0.11 | K -0.104 ± 0.15 | C -0.133 ± 0.1 | M 0.039 ± 0.15 | F -0.063 ± 0.11 | T -0.099 ± 0.15 | P 0.11 ± 0.14 | R -0.112 ± 0.081
E24: P -0.517 ± 0.1 | L -0.363 ± 0.077 | G -0.012 ± 0.073 | S -0.13 ± 0.084 | H -0.058 ± 0.13 | A -0.061 ± 0.086 | D 0.008 ± 0.14 | V 0.001 ± 0.086 | T 0.034 ± 0.099 | R -0.01 ± 0.07 | F -0.269 ± 0.099 | Q -0.135 ± 0.11 | W -0.198 ± 0.083 | K -0.017 ± 0.12 | N -0.184 ± 0.13 | M -0.06 ± 0.11 | C -0.706 ± 0.088
G12: R -0.05 ± 0.08 | N -0.611 ± 0.32 | Q -0.3 ± 0.18 | C 0.077 ± 0.14 | I 0.154 ± 0.16 | Y -0.137 ± 0.18 | L -0.039 ± 0.082 | A -0.361 ± 0.095 | E 0.092 ± 0.11 | D 0.357 ± 0.17 | K -0.216 ± 0.16 | P 0.027 ± 0.13 | H -0.182 ± 0.39 | T 0.035 ± 0.14 | W -0.326 ± 0.091 | V -0.405 ± 0.084 | F -0.203 ± 0.21
T21: W 0.106 ± 0.12 | K 0.198 ± 0.15 | E 0.036 ± 0.12 | P -0.169 ± 0.14 | G -0.053 ± 0.099 | S 0.083 ± 0.11 | Y 0.135 ± 0.18 | V 0.091 ± 0.092 | F -0.109 ± 0.16 | M 0.298 ± 0.14 | H 0.013 ± 0.19 | A 0.004 ± 0.1 | D -0.078 ± 0.19 | C 0.032 ± 0.13 | L -0.098 ± 0.089
C25: N -0.66 ± 0.14 | A -0.784 ± 0.1 | Q -0.644 ± 0.15 | V -0.636 ± 0.084 | S -0.671 ± 0.078 | W -0.879 ± 0.11 | L -0.846 ± 0.082 | K -0.808 ± 0.24 | I -0.669 ± 0.14 | G -0.682 ± 0.083 | P -0.577 ± 0.1 | D -0.834 ± 0.18 | M -0.742 ± 0.14 | H -0.529 ± 0.16 | T -0.606 ± 0.13 | R -0.79 ± 0.079 | Y -0.651 ± 0.12
S13: M 0.012 ± 0.1 | T -0.048 ± 0.11 | H -0.079 ± 0.21 | R -0.264 ± 0.079 | E -0.257 ± 0.13 | Q 0.135 ± 0.12 | V -0.456 ± 0.098 | P -0.062 ± 0.11 | L -0.23 ± 0.078 | K 0.209 ± 0.14 | A -0.37 ± 0.095 | G -0.525 ± 0.1 | N -0.146 ± 0.18 | Y -0.227 ± 0.18 | C -0.384 ± 0.13 | I -0.21 ± 0.16 | F -0.148 ± 0.1 | D -0.463 ± 0.16
K26: Q 0.04 ± 0.14 | C -0.026 ± 0.16 | W -0.022 ± 0.11 | H -0.253 ± 0.29 | S 0.119 ± 0.1 | F -0.025 ± 0.12 | E 0.045 ± 0.31 | T 0.195 ± 0.14 | Y 0.148 ± 0.16 | N 0.09 ± 0.19 | D 0.071 ± 0.13 | M 0.335 ± 0.17 | R 0.072 ± 0.11 | G 0.139 ± 0.11 | L 0.103 ± 0.095 | I 0.006 ± 0.18 | V 0.065 ± 0.097 | P -0.148 ± 0.14
T23: S 0.003 ± 0.1 | V 0.067 ± 0.1 | L -0.163 ± 0.1 | I -0.187 ± 0.15 | Q -0.36 ± 0.21 | H -0.18 ± 0.3 | R -0.016 ± 0.089 | Y 0.024 ± 0.22 | N -0.342 ± 0.23 | K -0.031 ± 0.28 | A 0.097 ± 0.098 | E -0.043 ± 0.14 | F 0.288 ± 0.15 | M 0.062 ± 0.17 | D 0.041 ± 0.19 | C 0.041 ± 0.12 | P -0.126 ± 0.15
P17: I -0.448 ± 0.16 | T -0.464 ± 0.16 | N -0.189 ± 0.18 | Y -0.53 ± 0.17 | F -0.245 ± 0.12 | G -0.097 ± 0.087 | M -0.491 ± 0.23 | S -0.175 ± 0.11 | L -0.084 ± 0.099 | D -0.122 ± 0.17 | A -0.176 ± 0.1 | R -0.106 ± 0.12 | E 0.137 ± 0.15 | K 0.127 ± 0.18 | W -0.199 ± 0.18 | Q -0.114 ± 0.21 | V -0.428 ± 0.088
N20: E -0.012 ± 0.14 | R 0.078 ± 0.08 | I -0.115 ± 0.14 | W -0.188 ± 0.096 | G 0.055 ± 0.083 | A -0.001 ± 0.1 | F -0.051 ± 0.13 | T 0.067 ± 0.12 | Q 0.094 ± 0.15 | D 0.186 ± 0.19 | L -0.024 ± 0.085 | V 0.07 ± 0.097 | M 0.188 ± 0.16 | S -0.082 ± 0.093 | Y -0.337 ± 0.15 | C -0.091 ± 0.11
D15: T -0.013 ± 0.17 | H -0.239 ± 0.46 | S -0.051 ± 0.1 | L 0.015 ± 0.081 | N 0.02 ± 0.24 | I 0.01 ± 0.16 | P -0.273 ± 0.16 | K -0.014 ± 0.25 | Y 0.124 ± 0.17 | A -0.138 ± 0.12 | C -0.152 ± 0.13 | R -0.257 ± 0.089 | M -0.053 ± 0.13 | F 0.003 ± 0.15 | W -0.328 ± 0.099 | E -0.248 ± 0.15 | G -0.124 ± 0.096 | V 0.001 ± 0.087
P16: F 0.024 ± 0.13 | E -0.187 ± 0.13 | Y -0.056 ± 0.18 | V -0.483 ± 0.22 | H 0.009 ± 0.21 | C -0.045 ± 0.11 | I -0.173 ± 0.16 | M -0.09 ± 0.12 | Q -0.094 ± 0.16 | T -0.37 ± 0.15 | K -0.248 ± 0.14 | N -0.229 ± 0.26 | G -0.354 ± 0.12 | A -0.37 ± 0.2 | R -0.179 ± 0.1 | W -0.541 ± 0.13 | L -0.095 ± 0.091 | S -0.057 ± 0.1
N10: T 0.062 ± 0.11 | Q -0.005 ± 0.12 | E -0.022 ± 0.11 | A 0.041 ± 0.096 | H -0.608 ± 0.16 | D -0.245 ± 0.16 | W -0.676 ± 0.1 | M 0.042 ± 0.099 | R -0.274 ± 0.08 | F -0.103 ± 0.12 | L -0.204 ± 0.08 | V -0.211 ± 0.087 | S -0.08 ± 0.086 | K 0.2 ± 0.12
L9: D -0.138 ± 0.13 | F 0.007 ± 0.11 | T -0.081 ± 0.11 | K 0.026 ± 0.12 | M 0.145 ± 0.096 | N -0.174 ± 0.16 | R -0.156 ± 0.081 | A 0.032 ± 0.086 | P -0.197 ± 0.096 | G -0.047 ± 0.078 | W -0.419 ± 0.092 | I -0.098 ± 0.14 | Y -0.181 ± 0.14 | S -0.042 ± 0.082 | V -0.056 ± 0.077 | C -0.201 ± 0.11 | H -0.231 ± 0.15 | Q -0.128 ± 0.11 | E -0.11 ± 0.11
N18: Y -0.094 ± 0.18 | K -0.032 ± 0.17 | H -0.1 ± 0.17 | A -0.199 ± 0.11 | F -0.199 ± 0.16 | I -0.5 ± 0.23 | C -0.219 ± 0.14 | V -0.348 ± 0.096 | S -0.128 ± 0.1 | T -0.089 ± 0.15 | P -0.047 ± 0.16 | E -0.104 ± 0.15 | D 0.008 ± 0.2 | W -0.346 ± 0.12 | G -0.098 ± 0.1 | Q -0.07 ± 0.12 | R -0.079 ± 0.1 | M -0.842 ± 0.14
N27: H -0.024 ± 0.19 | D -0.094 ± 0.12 | C 0.169 ± 0.18 | K -0.03 ± 0.15 | A 0.151 ± 0.11 | I 0.004 ± 0.2 | G 0.138 ± 0.096 | F -0.424 ± 0.19
K14: W -0.525 ± 0.13 | A -0.079 ± 0.1 | M -0.128 ± 0.18 | S -0.126 ± 0.1 | G 0.021 ± 0.084 | P -0.116 ± 0.12 | F -0.36 ± 0.13 | V 0.039 ± 0.091 | I -0.653 ± 0.21 | N -0.016 ± 0.26 | E -0.226 ± 0.15 | T 0.013 ± 0.12 | C -0.643 ± 0.13 | Q -0.092 ± 0.23 | D 0.003 ± 0.14 | H 0.056 ± 0.18 | R 0.042 ± 0.1 | L -0.644 ± 0.12 | Y -0.554 ± 0.21
